{"source": "the nanobody polyreactivity screen of Harvey et al. (2022)"}
{"assay": "yeast display, Sf9 membrane polyspecificity reagent, FACS + sequencing; frameworks hold sequencing errors", "summary_of_the_method": "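Galactose-induced (36–48 hours) yeast carrying a synthetic nanobody display library were exposed to 10% biotinylated, detergent-solubilized Sf9 membrane reagent at 4 °C for 1 hour. FACS followed streptavidin microbead enrichment, using low and high (top ~1%) gates for expression (anti-HA) and reagent binding (streptavidin). Colony PCR, MiSeq 2 × 250 sequencing and CDR-length filtering followed. Labels for polyreactivity reflect the gate of origin.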"}
{"sequence": "QVQLVESGGGLVQAGGSLRLSCAASGLTFVHYAMGWYRQAPGKQRDLVAAISSGGGSTYYADSVKGRFTISRDNAKNTVYLQMNSLKPEDTAVYYCNVYDHYYSFYSSRDNDYWGQGTQVTVSS", "polyreactivity (PSR sort gate)": "low polyreactivity"}
{"sequence": "QVQLVESGGGLVQAGGSLRLSCAASGLTFVPNAMGWYRQAPGKERELVAAISNNGGRTYYADSVKGRFTISRDNAKNNVYLQMNSLKPEDTAVYYCAKYLSPGERHSYDYWGQGTQVTLSS", "polyreactivity (PSR sort gate)": "high polyreactivity"}
{"sequence": "QVQLVESGGGLVQAGGSLRLSCAASGLTFVQNAMGWYRQAPGKERELVAAISTSGGSTYYADSVKGRFTISRDNAKNTVYLQMNSLKPEDTAVYYCAAYPRSWWRGYDYWGQGTQVTVSS", "polyreactivity (PSR sort gate)": "high polyreactivity"}
{"sequence": "QVQLVESGGGLVQAGGSLRLSCAASGLTFVRYAMGWYRQAPGKERELVAVISYSGARTYYADSVKGRFTISRDNAKNTVYLQMNSLKPEDTAVYYCAATFRGTFRRIWTDTRAYDYWGQGTQVTVSS", "polyreactivity (PSR sort gate)": "high polyreactivity"}
{"sequence": "QVQLVESGGGLVQAGGSLRLSCAASGLTFVTYVMGWYRQAPGKERELVAAISYSGGSTYYADSVKGRFTISRDNAKNTVYLQMISLKPEDTAVYYCAAEWYGYQEDDYWGQGTQVTVSS", "polyreactivity (PSR sort gate)": "low polyreactivity"}
{"sequence": "QVQLVESGGGLVQAGGSLRLSCAASGLTFVYNTMGWYSQAPGKERELVAAISSSGGTTYYADSVKGRFTISRDTAKNTVYLQMNSLKPEDTAVYYCAARPSGGYESTRTRDYWGQGTHVTVSS", "polyreactivity (PSR sort gate)": "low polyreactivity"}
{"sequence": "QVQLVESGGGLVQAGGSLRLSCAASGLTFVYYAMGWSRPAPGKERELVAAISRGGTTYYADSVKGRFTISRDNAKNTVYLQMNSLKPEDTAVYYCARVGRYRYEWGQGTQVTVSS", "polyreactivity (PSR sort gate)": "high polyreactivity"}
{"sequence": "QVQLVESGGGLVQAGGSLRLSCAASGLTFVYYTMGWYRQAPGKERELVAAISGSGDNTYYADSVKGRFTISRDNAKNTVYLQMNSLKPEDTAVYYCAADKSYYYYLFGYDYWGQGTQVTVSS", "polyreactivity (PSR sort gate)": "low polyreactivity"}
{"sequence": "QVQLVESGGGLVQAGGSLRLSCAASGLTFVYYTMGWYRQAPGKERELVAGINSGGSTYYADSVKGRFTISRDNAKNTVFLQMNSLKPEDTAVYYCAAVQRGYRRFRRIYDYWGQGTQVTVSS", "polyreactivity (PSR sort gate)": "high polyreactivity"}
{"sequence": "QVQLVESGGGLVQAGGSLRLSCAASGLTFWGNAMGWYRQAPGKEREFVAGIDRSSVSTYADSVKGRFTISRDNAKNTVYLQMNSLKPEDTAVYYCAVDEYGIWVGWVPYATFGMNYWGQGTQVTVSS", "polyreactivity (PSR sort gate)": "high polyreactivity"}
{"sequence": "QVQLVESGGGLVQAGGSLRLSCAASGLTFWGNTMGWYRQAPGKERELVAAISSGGITYYADSVKGRFTISRDNANNTVYLLMNSLKPEETAVYYCIGVFSFVPHEMDYWGLGTQVTVSS", "polyreactivity (PSR sort gate)": "high polyreactivity"}
{"sequence": "QVQLVESGGGLVQAGGSLRLSCAASGLTFWGYAMGWYRQAPGKEREFVASISSGGGSTYYADSVKGRFTISRDNAKNTVYLQMNSLKPEDTAVYYCNVDVHLYLYKSYTYRYYYWGQGTQVTVSS", "polyreactivity (PSR sort gate)": "low polyreactivity"}
{"sequence": "QVQLVESGGGLVQAGGSLRLSCAASGLTFWRYTMGWYRHAPGKERELVATIRRGTSTNYADSVKGRFTISRDNAKNTVYLQMNSLKPEDTAVYYCAAVPWRYYVEYDYWGQGTQVTVSS", "polyreactivity (PSR sort gate)": "high polyreactivity"}
{"sequence": "QVQLVESGGGLVQAGGSLRLSCAASGLTFWRYTMGWYRPAPGKERELVAVITYRGGSTYYADSVKGRFTISRDNAKNTVYLQMNSLKPEDTAVYYCDAGRRTYGLTYDYWGQGTQVTVSS", "polyreactivity (PSR sort gate)": "high polyreactivity"}
{"sequence": "QVQLVESGGGLVQAGGSLRLSCAASGLTFWTNTMGWSRQAPGKERELVATISSGGGTYYADSVKGRFTISRDNAKNTVYLQMNSLKPEDTAVYYCAAKRKRYFVGYYYWGQGTQVTVSS", "polyreactivity (PSR sort gate)": "low polyreactivity"}
{"sequence": "QVQLVESGGGLVQAGGSLRLSCAASGLTFWYYAMGWYRQAPGKERELVAAISFSGGRTYYADSVKGRFTISRDNAKYTVYLQMNSLKPEDTAVYYCNKATWYPFWYAPSYDYWGQGTQVTVSS", "polyreactivity (PSR sort gate)": "high polyreactivity"}
{"sequence": "QVQLVESGGGLVQAGGSLRLSCAASGLTFYEDVLGWYRQAPGKERELVAAISYSGGRTYYADSVQGRFTISRDNAKNTVYLQMNSLKPEDTAVYYSAAQSRYAGKFYYWGQGTQVTVSS", "polyreactivity (PSR sort gate)": "high polyreactivity"}
{"sequence": "QVQLVESGGGLVQAGGSLRLSCAASGLTFYGNAMGWYIQAPGKERELVAAISSRGGRTYYADSVKGRFTISRDNAKNTVYLQMNSLKPEDTAVYYCNDRYKYPDMDYWGQGTQVTVSS", "polyreactivity (PSR sort gate)": "high polyreactivity"}
{"sequence": "QVQLVESGGGLVQAGGSLRLSCAASGLTFYGNAMGWYRQAPGKERELVAAISRGGRTYYADSVKGRFTISRDNAKNTVYLQMNSLKPEDTAVYYCATVVSRGKQPFDMDYWGQGTQVTVSS", "polyreactivity (PSR sort gate)": "low polyreactivity"}
{"sequence": "QVQLVESGGGLVQAGGSLRLSCAASGLTFYGYTMGWYRQAPGKERELVADISISGGSTRYADSVKGRFTISRDNAKNTVYLQMNSLKPEDTAVYYCARDDIYYSNIYDYWGQGTQVTVSS", "polyreactivity (PSR sort gate)": "low polyreactivity"}
{"sequence": "QVQLVESGGGLVQAGGSLRLSCAASGLTFYGYVMGWYRQAPGKERELVASISRSGGRTYYADSVKGRFTISRDNAKNTVYLQMNSLKPEDTAVYYCAAADQVGQEDDYWGQGTQVTVSS", "polyreactivity (PSR sort gate)": "low polyreactivity"}
{"sequence": "QVQLVESGGGLVQAGGSLRLSCAASGLTFYKNAMGWYRQPPGKERELGAVISSSGGSTYYADSVKGRFTISRDNAKNTVYLQMKSLKPEDTAVYYSARDLYTEYRWGRLTYDYWGQGTQVTVSS", "polyreactivity (PSR sort gate)": "low polyreactivity"}
{"sequence": "QVQLVESGGGLVQAGGSLRLSCAASGLTFYPNAMGWYRPAPGKEREFVASISISGRTYYADSVKGRFTISRDNAKNTVYLQMNSLKPEDTAVYYCAARYVRSGLYRKYDYWGQGTQVTVSS", "polyreactivity (PSR sort gate)": "high polyreactivity"}
{"sequence": "QVQLVESGGGLVQAGGSLRLSCAASGLTFYQYAMGWYRQAPGKERELVAAISKSAGSTYYADSVKGSFTISRDNAKNTVYLQMNSLKPEDTAVYFCAARVLRLRYDYWGQGTQVTVSS", "polyreactivity (PSR sort gate)": "high polyreactivity"}
{"sequence": "QVQLVESGGGLVQAGGSLRLSCAASGLTFYQYAMGWYRQAPGKERELVAGISSGGSTKYADSVKGRFTISRDNAKNTVYLQMNSLKPEDTAVYYCAARFCAFRKGYYYWGQGTQVTVSS", "polyreactivity (PSR sort gate)": "high polyreactivity"}
{"sequence": "QVQLVESGGGLVQAGGSLRLSCAASGLTFYQYTMGWYRQAPGKERELVAAISRRGGSTYYADSVKGRFTISRDNAKNTVYLQMNSLKPEDTAVYYCAARALRYSSDFDYWGQGTQVTVSS", "polyreactivity (PSR sort gate)": "high polyreactivity"}
{"sequence": "QVQLVESGGGLVQAGGSLRLSCAASGLTFYRYAMGWYRQAPGKEMELVAAIRVSGNTYYADSVKGPFTISRDNAKNTVYLEMNCLKPEDTAVYYCAAKPYYFYGMDYWGQGTQVTVSS", "polyreactivity (PSR sort gate)": "high polyreactivity"}
{"sequence": "QVQLVESGGGLVQAGGSLRLSCAASGLTFYRYAMGWYRQAPGKERELVAAIRSNVVTTYYADSVKGRFTISRDNAKNTVYLQMNSLKPEDTAVYYCNAVSYSFPIHRVRPTWYDYWGQGTQVTVSS", "polyreactivity (PSR sort gate)": "high polyreactivity"}
{"sequence": "QVQLVESGGGLVQAGGSLRLSCAASGLTFYRYAMGWYRQSPGKERELVAAISRGGTSTYYADSVKGRFTISRDNAKNTVYLQMSSLKPEDTAVYYCARLVKPYNYGRYGYWGQGTQVTVSS", "polyreactivity (PSR sort gate)": "high polyreactivity"}
{"sequence": "QVQLVESGGGLVQAGGSLRLSCAASGLTFYSNAMGWYIQAPGKERELVASISKRGATTYYADSVKGRFTISRDIAKYTVYLQMNSQKAEDTAVYYCAAEYLRNQELGYQGVAILYVFWGQGTQVTVSS", "polyreactivity (PSR sort gate)": "low polyreactivity"}
{"sequence": "QVQLVESGGGLVQAGGSLRLSCAASGLTFYSNAMGWYRQAPGKERELVAAITWRSVRTYYADSVKGRFTISRDNAKNTVYLQMNSLKPEDTAVYYCAAASASRHGEYDYWGQGTQVTVSS", "polyreactivity (PSR sort gate)": "low polyreactivity"}
{"sequence": "QVQLVESGGGLVQAGGSLRLSCAASGLTFYSNAMGWYRQAPGKERELVASISNGGSTNYADSVKGRFTISRDNAKNTVYLQMNSLKPEDTAVYYCAAEYSLRHRRYTFFAEMDYWGQGTQVTVSS", "polyreactivity (PSR sort gate)": "low polyreactivity"}
{"sequence": "QVQLVESGGGLVQAGGSLRLSCAASGLTFYSYAMGWYRQAPGKERELVAAISNTGGTNYADSVKGRFTISRDNAKNNVYFQMTSLKPEDTAVYYCNRTFYHYLYRGYGYWGQGTQVTVSS", "polyreactivity (PSR sort gate)": "low polyreactivity"}
{"sequence": "QVQLVESGGGLVQAGGSLRLSCAASGLTFYVYAMGWYRQAPGKERELVAAISSGGRTYYADSVKGRFTISRDNAKNTVYLQMNSLKPEDTAVYYCAARSPVWRTTEDYWGQGTQVTVSS", "polyreactivity (PSR sort gate)": "high polyreactivity"}
{"sequence": "QVQLVESGGGLVQAGGSLRLSCAASGLTFYYYAMGWYRQAPGKERELVAAISIGGSTDYADSVKGRFTISRDNAKNTVYLQMNSLKPEDTAVYYCNVDDNSEYDYWGQVTQVTVSS", "polyreactivity (PSR sort gate)": "low polyreactivity"}
{"sequence": "QVQLVESGGGLVQAGGSLRLSCAASGLTFYYYAMGWYRQAPGKERELVAAITWSGASTYYADSVKGRFTISRDNAKNTVYLQMNSLKPEDTAVYYCNARVWGGVEFGYWGQGTQVTVSS", "polyreactivity (PSR sort gate)": "high polyreactivity"}
{"sequence": "QVQLVESGGGLVQAGGSLRLSCAASGLTFYYYAMGWYRQAPGKERELVATISSGGNTNYADSVKGRFTISRDNAMNTVYLQMNSLKPEDTAVYYCNADRWFHYYRYNYWGQGTQVTVSS", "polyreactivity (PSR sort gate)": "high polyreactivity"}
{"sequence": "QVQLVESGGGLVQAGGSLRLSCAASGLTFYYYVMGWYRQAPGKERELVAAISSSGGNTYYADSVKGRFTISRDNEKNTVYLQMNSLKPEDTAVYYCAAGQKRTLDNYWGQGTQVTVSS", "polyreactivity (PSR sort gate)": "high polyreactivity"}
{"sequence": "QVQLVESGGGLVQAGGSLRLSCAASGLTIAYYDMGWYRPAPGKERELVARISRGGSTNYADSVKGRFTISRDNAKNTVYLQMNSLKPEDTAVYYCNTGYVYPYKILMDYWGQGTQVTVSS", "polyreactivity (PSR sort gate)": "low polyreactivity"}
{"sequence": "QVQLVESGGGLVQAGGSLRLSCAASGLTIDRNAMGWYRQAPGKERELVAAINWRGSRTYYADSVKGRFTISRDNAKNTVYLQMNSLKPEDTAVYYCAADWHTTYDYWGQVTQVTVSS", "polyreactivity (PSR sort gate)": "high polyreactivity"}
{"sequence": "QVQLVESGGGLVQAGGSLRLSCAASGLTIRYNAMGWYRQAPGKERELVARISRNGGRTYYADSVKGRFTISRDNAKNTVYLQMKSLKPEDTAVNYCNVVYFVTTSPGYDYWGQGTQVTVSS", "polyreactivity (PSR sort gate)": "high polyreactivity"}
{"sequence": "QVQLVESGGGLVQAGGSLRLSCAASGLTISTYAMGWYIQAPGKDRELVATITYSGSSTYADSVKGRFTISRDNAKNTVYLQMNSLKPEDTAVYYCAAFTYHGNPSEYYPDTVGFYYWGQGTQVSVSS", "polyreactivity (PSR sort gate)": "low polyreactivity"}
{"sequence": "QVQLVESGGGLVQAGGSLRLSCAASGLTIVNYAMGWYRQAPGKERELVAAITVNGGRTYYADSVKGRFTISRDNAKNTVYLQMNSLKPEDTAVYYCAAVYYRHWYTYSSDYWGQGTQVTVSS", "polyreactivity (PSR sort gate)": "high polyreactivity"}
